Data on 5 molecules can be found in paper PMC9160049, “Cryo-EM structures of Gid12-bound GID E3 reveal steric blockade as a mechanism inhibiting substrate ubiquitylation” (Nature Communications, 2022).

The target of data set [1] is Chelator-GID^SR4 (Gid7-Gid4-Gid5-Gid1-Gid8-Gid2-Gid9), Twin-Strep at the C-terminus of Gid8 (S. cerevisiae) (UniProt P53076). Description: cryo-EM structure; Cage-GID^SR4 prepared without Gid12, co-expressed in Hi5 cells and purified; 19.8 Å map fitted with three Chelator-GID^SR4 models.
Data set [2] concerns the target Gid12-Chelator-GID^SR4 (Gid12-Gid7-Gid4-Gid5-Gid1-Gid8-Gid2-Gid9), Twin-Strep at the C-terminus of Gid8 (S. cerevisiae) (UniProt Q12027). Description: cryo-EM structure; maps of Gid12-GID^SR4 (9.8 Å), Gid12-Chelator-GID^SR4 (19.4 Å) and Gid12-Cage-GID^SR4 (20.6 Å), complexes co-expressed in Hi5 cells and purified; docked with Gid12-SRS and prior structures.
The target in data set [3] is PHSVTP-Fbp1 (Fbp1 with its N-terminus exchanged to Mdh2 degron) (S. cerevisiae) (UniProt P09201). In words: cryo-EM structure; purified Cage-GID^SR4 at 1 mg/ml with fivefold molar excess of purified PHSVTP-Fbp1 added directly before grid preparation; 12.2 Å; 25 mM HEPES pH 7.5, 50 mM NaCl, 5 mM DTT.
Data set [4] addresses T1, 3×HA-Gid4 (endogenously N-terminally HA-tagged Gid4) (S. cerevisiae (endogenous in BY4741), UniProt P38263 1-362).
T1 construct: Gid4 (Vid24), S. cerevisiae, tagged at the endogenous locus; source: endogenous locus, BY4741 GID12-9×cMYC::kanMX4, 3×HA-GID4 yeast, in lysate; not shown: 3×HA, N-terminal, kept
T1 sequence (looked up): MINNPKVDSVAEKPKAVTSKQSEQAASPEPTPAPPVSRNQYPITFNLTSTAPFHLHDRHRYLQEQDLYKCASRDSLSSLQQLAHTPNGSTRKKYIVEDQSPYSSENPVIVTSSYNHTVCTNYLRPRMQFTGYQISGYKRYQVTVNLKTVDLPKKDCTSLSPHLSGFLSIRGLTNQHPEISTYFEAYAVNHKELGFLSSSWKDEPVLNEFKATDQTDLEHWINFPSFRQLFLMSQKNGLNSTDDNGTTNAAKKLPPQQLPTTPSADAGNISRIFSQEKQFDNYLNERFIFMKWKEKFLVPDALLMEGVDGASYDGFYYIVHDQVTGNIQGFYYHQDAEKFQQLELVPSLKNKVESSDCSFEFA
Description: affinity purification with mass spectrometry; 3×HA-Gid4 on anti-HA resin, eluted with HA peptide, from BY4741 GID12-9×cMYC lysate; glycolytic conditions, ethanol starvation for 16 h or carbon recovery; iBAQ quantification. The note with it: partners not purified.

Data set [5] concerns the molecule itself. Description: cryo-EM structure; purified Chelator-GID^SR4 at 0.6 mg/ml with threefold molar excess of purified Mdh2-6×His added directly before grid preparation; 18.9 Å; 25 mM HEPES pH 7.5, 150 mM NaCl, 5 mM DTT.

For “Chelator-GID^SR4 (Gid7-Gid4-Gid5-Gid1-Gid8-Gid2-Gid9), Twin-Strep at the C-terminus of Gid8, P53076 1-958; Q12508 1-421; P38263 1-362; P40547 1-921; P25569 1-745; P40208 1-455; P40492 1-516”, the stoichiometry N (usually a count of units in the complex or per binding partner) in data set [1] came to 3.
Regarding “Gid12-Chelator-GID^SR4 (Gid12-Gid7-Gid4-Gid5-Gid1-Gid8-Gid2-Gid9), Twin-Strep at the C-terminus of Gid8, Q12027 1-708; P53076 1-958; Q12508 1-421; P38263 1-362; P40547 1-921; P25569 1-745; P40208 1-455; P40492 1-516”, in data set [2], the stoichiometry N turned out to be 3.
As for “PHSVTP-Fbp1 (Fbp1 with its N-terminus exchanged to Mdh2 degron) (from UniProt P09201 1-348) (enzyme)”, the stoichiometry N in data set [3] amounted to 4.

B1: Gid12-9×cMYC (natural protein, S. cerevisiae (endogenous in BY4741), UniProt Q12027 1-708, looked up)
chain: MATGRIQFAVSTPCNTKGKPSGYRLFEFKNDRLALVPSERGCTKVDVNANIQAFCYLRPNGRDTSISPDATHILDSCDYMVLAKSNGFIEIISNYQYKIKNGLRLAPSYILRCTPEDFESNFFSDYMIAGLEYSQGLLYCCMCSGRIYVFVMNLPTDYIQYKNMYNPMFPDCFFKVHHDNNTTHSSEEEKLFEGSTRYTGRSCSKHICYFLLPIEPSHLRSSPVVSSFCNMYQGLPIYRPSMYLHIERGISTFHINPLDRFCFMTVSPRSPLFIRKIILPLTYVTFLSTFISLKNSIQGDTCGEILSWDNVAQQNGFGSLFSWISNKFTFDTDIINSTIWDDIVKYSGTGMLDSGIVWKQRQGHAKDDIYELFHTQDMLGSSRRNSSFSTASSEPRPLSRRRRESFQALTRDAFRERMDVPCSTKWELDSFIRGLRRNTFMVDFEIVEKISHRNGNDGVNEDDNTTDESDETMTSFLTDNYKKMDIVCIDHFVTLSAFRPRYYDEPIIKIDSLSNKNGSENGTNEEEWAESQMKVDGQVIDDETAQFKQALGNLCSFKKLFMLDDSLCFILDTHGVLLINRFEIKNTKNLLRNSKDTIRIIPHDFGLINDTIVIINDIDVGTDNVCALTFHLVVTSMAGEITVLKGEFFKNCRLGRIKLCDSLKLNRKDRFVDKLALIDYDGLNAQKRRLDYDEKDLYTFIVKKVKRD
notes: Gid12 (Ipf1, YDL176W), S. cerevisiae, tagged at the endogenous locus; The strain name is written GID12-9×cMYC; source: endogenous locus, BY4741 GID12-9×cMYC::kanMX4, 3×HA-GID4 yeast, in lysate
Take B1: in data set [4], the “ratio of Gid12 to Gid4 in the Gid4 immunoprecipitate (iBAQ), glycolytic growth conditions” value was ~0.2 Gid12:Gid4 and the “stoichiometry of Gid12 to Gid4 in the Gid4 immunoprecipitate (iBAQ), gluconeogenic growth conditions” value is ~1 Gid12:Gid4.

B2: Mdh2-6×His (enzyme, S. cerevisiae, UniProt P22133 2-377, looked up)
chain: PHSVTPSIEQDSLKIAILGAAGGIGQSLSLLLKAQLQYQLKESNRSVTHIHLALYDVNQEAINGVTADLSHIDTPISVSSHSPAGGIENCLHNASIVVIPAGVPRKPGMTRDDLFNVNAGIISQLGDSIAECCDLSKVFVLVISNPVNSLVPVMVSNILKNHPQSRNSGIERRIMGVTKLDIVRASTFLREINIESGLTPRVNSMPDVPVIGGHSGETIIPLFSQSNFLSRLNEDQLKYLIHRVQYGGDEVVKAKNGKGSATLSMAHAGYKCVVQFVSLLLGNIEQIHGTYYVPLKDANNFPIAPGADQLLPLVDGADYFAIPLTITTKGVSYVDYDIVNRMNDMERNQMLPICVSQLKKNIDKGLEFVASRSASS
notes: Mdh2 (malate dehydrogenase), S. cerevisiae; The name is written Mdh2-6×His; also called malate dehydrogenase; source: purified
In the case of B2, in data set [5], the “stoichiometry N” value is 2.
